The text below walks through data of PMC3565064 (Analytical biochemistry, 2012).

Ends that are not written are not given here. * marks the point of attachment. Fc = ferrocene monocarboxylic acid coupled as acyl group on the N-terminus, O=C([c-]1cccc1)*.[Fe+2].c1cc[cH-]c1

The target in this assay is amyloid beta peptide Aβ(1–42) (UniProt P05067 672-713). Briefly: differential pulse voltammetry of the ferrocene tag.

As for Fc-KLVFFKKKKKK [ferrocene-tagged β-sheet breaker peptide Fc-KLVFFK6], the “t1/2 at [Fc-KLVFFK6]:[Aβ(1–42)] 1:0.25” value came to 1.29 h, the “t1/2 at [Fc-KLVFFK6]:[Aβ(1–42)] 1:0.5” value came out at 1.35 h, the “t1/2 at [Fc-KLVFFK6]:[Aβ(1–42)] 1:1” value is 1.53 h and the “t1/2 at [Fc-KLVFFK6]:[Aβ(1–42)] 1:2” value is 1.13 h. For the same molecule, the “t1/2 at [Fc-KLVFFK6]:[Aβ(1–42)] 1:4” value is 1.02 h.
